Results reported in patent US20200216495A1 (ADRX, published 2020).
“And” between values parts separate entries of the source, which are not always exact repeats. Identical values can stand only once. Square brackets hold non-standard residues; d marks the D form. Ends that are not written are not given here. dNle = CCCC[C@@H](N)C(=O)O

The binders below were run against Tau40 P301L protein (human) (assay: cell-based or functional assay).

Binder | IC50, Tau40 assay (ThT)
[dF][dK][dL][dK][dL][dR][dH][dW] [fklklrhw (PEPTIDE ID NO: 125)] | 1340 nM and 1360 nM
[dF][dW][dL][dK][dL][dR][dW][dF] [fwlklrwf (PEPTIDE ID NO: 15)] | 1380 nM and 2080 nM
[dL][dK][dI][dR][dI][dR][dY][dH] [lkiriryh (PEPTIDE ID NO: 194)] | 650 nM and 850 nM
[dL][dK][dI][dR][dI][dNle][dY] [lkiriuy (PEPTIDE ID NO: 251)] | 1120 nM
[dF][dR][dI][dR][dI][dK][dH][dY] [fririkhy (PEPTIDE ID NO: 114)] | 1120 nM and 1150 nM
[dR][dL][dK][dI][dR][dW] [rlkirw (PEPTIDE ID NO: 23)] | 1210 nM and 1680 nM
[dF][dR][dL][dK][dL][dR][dH][dW] [frlklrhw (PEPTIDE ID NO: 116)] | 1240 nM
[dF][dR][dI][dR][dI][dH][dH][dW] [fririhhw (PEPTIDE ID NO: 115)] | 1240 nM and 1310 nM
[dF][dK][dL][dH][dL][dR][dH][dW] [fklhlrhw (PEPTIDE ID NO: 126)] | 1390 nM and 1510 nM
[dR][dI][dK][dI][dR][dW] [rikirw (PEPTIDE ID NO: 26)] | 1400 nM and 1490 nM
[dL][dK][dI][dR][dL][dH][dH][dW] [lkirlhhw (PEPTIDE ID NO: 143)] | 1420 nM and 1070 nM
[dM][dR][dL][dK][dV][dR][dW] [mrlkvrw (PEPTIDE ID NO: 254)] | 1170 nM and 1570 nM
[dF][dR][dL][dR][dI][dW][dW] [frlriww (PEPTIDE ID NO: 423)] | 1410 nM
[dL][dK][dI][dR][dI][dA][dY] [lkiriay (PEPTIDE ID NO: 271)] | 1480 nM
[dF][dR][dV][dR][dI][dR][dH][dW] [frvrirhw (PEPTIDE ID NO: 118)] | 1310 nM
[dH][dW][dR][dL][dK][dV][dR][dW] [hwrlkvrw (PEPTIDE ID NO: 266)] | 1420 nM
[dF][dR][dI][dK][dL][dR][dW] [friklrw (PEPTIDE ID NO: 47)] | 1370 nM and 1460 nM
[dL][dK][dI][dR][dI][dH][dY][dH] [lkirihyh (PEPTIDE ID NO: 147)] | 1250 nM and 670 nM

Binder | IC50, Tau40 assay (ThT)
[dH][dR][dL][dK][dV][dR][dW][dW] [hrlkvrww (PEPTIDE ID NO: 265)] | 1410 nM
[dL][dR][dI][dR][dL][dH][dH][dF] [lrirlhhf (PEPTIDE ID NO: 146)] | 1220 nM and 1540 nM
[dF][dR][dI][dR][dL][dR][dW] [frirlrw (PEPTIDE ID NO: 56)] | 1460 nM
[dE][dL][dK][dI][dR][dI][dH][dY] [elkirihy (PEPTIDE ID NO: 253)] | 1160 nM
[dL][dK][dI][dR][dI][dH][dY][dA] [lkirihya (PEPTIDE ID NO: 269)] | 1450 nM
[dF][dK][dI][dH][dL][dR][dH][dW] [fkihlrhw (PEPTIDE ID NO: 124)] | 1340 nM
[dF][dW][dR][dL][dK][dV][dR][dW] [fwrlkvrw (PEPTIDE ID NO: 261)] | 1320 nM
[dL][dK][dI][dH][dI][dR][dH][dW] [lkihirhw (PEPTIDE ID NO: 148)] | 1290 nM and 1390 nM
[dL][dK][dI][dR][dI][dH][dR][dH] [lkirihrh (PEPTIDE ID NO: 274)] | 1510 nM
[dR][dI][dR][dI][dR][dW] [ririrw (PEPTIDE ID NO: 75)] | 1470 nM and 710 nM
[dF][dR][dL][dK][dI][dR][dH][dW] [frlkirhw (PEPTIDE ID NO: 117)] | 1150 nM and 1200 nM
[dL][dK][dI][dR][dI][dH][dY][dF] [lkirihyf (PEPTIDE ID NO: 250)] | 1110 nM
[dL][dH][dL][dK][dI][dR][dY][dH] [lhlkiryh (PEPTIDE ID NO: 410)] | 1160 nM
[dF][dH][dI][dR][dI][dR][dH][dW] [fhirirhw (PEPTIDE ID NO: 138)] | 1260 nM and 1310 nM
[dL][dR][dI][dR][dI][dR][dF][dH] [lririrfh (PEPTIDE ID NO: 152)] | 1410 nM and 1870 nM
[dF][dR][dL][dR][dI][dH][dW] [frlrihw (PEPTIDE ID NO: 270)] | 1200 nM and 1470 nM
[dL][dR][dI][dR][dI][dK][dH][dY] [lririkhy (PEPTIDE ID NO: 145)] | 1190 nM and 1100 nM
[dH][dL][dK][dI][dR][dI][dH][dY] [hlkirihy (PEPTIDE ID NO: 259)] | 1250 nM

Other lines, results leading:

IC50, Tau40 assay (ThT) | Binder
1270 nM and 990 nM | [dW][dK][dV][dW][dV][dR]G[dW] (not fully specified (residue 7); printed as wkvwvrgw) [wkvwvrgw (PEPTIDE ID NO: 93)]
1460 nM | [dR][dW][dR][dW][dR][dW] [rwrwrw (PEPTIDE ID NO: 17)]
1120 nM and 1210 nM | [dW][dI][dK][dI][dR][dW] [wikirw (PEPTIDE ID NO: 21)]
650 nM and 1020 nM | [dW][dK][dL][dW][dL][dR][dW] (not fully specified; printed as wklwlrw) [wklwlrw (PEPTIDE ID NO: 91)]
1130 nM | [dW][dW][dR][dF][dH][dW][dR] [wwrfhwr (PEPTIDE ID NO: 43)]
1490 nM | [dW][dR][dL][dR][dI][dA][dW] [wrlriaw (PEPTIDE ID NO: 272)]
1390 nM | [dW][dE][dL][dK][dV][dR][dW][dW] [welkvrww (PEPTIDE ID NO: 264)]
1290 nM and 1110 nM | [dW][dR][dL][dR][dI][dH][dW][dW] [wrlrihww (PEPTIDE ID NO: 20)]
1270 nM and 1430 nM | [dY][dR][dV][dR][dI][dE][dW][dL] [yrvriewl (PEPTIDE ID NO: 159)]
1490 nM | [dW][dQ][dL][dK][dV][dR][dW] [wqlkvrw (PEPTIDE ID NO: 273)]
1190 nM | [dW][dH][dL][dR][dL][dR][dH][dW] [whlrlrhw (PEPTIDE ID NO: 109)]
680 nM | [dW][dR][dL][dK][dV][dR][dW][dL] [wrlkvrwl (PEPTIDE ID NO: 197)]
1250 nM | [dW][dA][dL][dK][dV][dR][dW] [walkvrw (PEPTIDE ID NO: 257)]
1330 nM | [dW][dR][dL][dR][dI][dH][dT] [wrlriht (PEPTIDE ID NO: 262)]
1280 nM | [dW][dR][dL][dR][dM][dH][dW] [wrlrmhw (PEPTIDE ID NO: 260)]
690 nM | [dW][dL][dK][dI][dR][dI][dH][dY] [wlkirihy (PEPTIDE ID NO: 198)]
1360 nM | [dW][dR][dL][dK][dF][dR][dW] [wrlkfrw (PEPTIDE ID NO: 263)]
1190 nM | [dY][dL][dK][dI][dR][dI][dH][dY] [ylkirihy (PEPTIDE ID NO: 256)]
1290 nM | [dW][dR][dL][dW][dI][dH][dW] [wrlwihw (PEPTIDE ID NO: 428)]
1110 nM | [dW][dL][dR][dV][dQ][dV][dK][dL][dW] [wlrvqvklw (PEPTIDE ID NO: 416)]
680 nM | [dV][dR][dW][dW][dK][dL][dR][dW] [vrwwklrw (PEPTIDE ID NO: 196)]
1430 nM | [dY][dW][dR][dL][dK][dV][dR][dW] [ywrlkvrw (PEPTIDE ID NO: 268)]
660 nM | [dW][dW][dR][dV][dK][dL][dR][dW] [wwrvklrw (PEPTIDE ID NO: 195)]
1170 nM | [dW][dR][dL][dK][dT][dR][dW] [wrlktrw (PEPTIDE ID NO: 255)]
